Values quoted from earlier work in PMC9481538, “The interaction between LC8 and LCA5 reveals a novel oligomerization function of LC8 in the ciliary-centrosome system” (Scientific Reports, 2022).

Target: T1, LC8 (Homo sapiens, UniProt Q96FJ2)
T1 construct: 6xHis (N); made in house; host or cells: E. coli BL21 (DE3) Rosetta
Details: literature, ref (6)-(10) of supplement, cited from earlier work; for Number of monomeric LC8 in complex / Number of monomeric binding partners in complex: composition of complexes
Source text: According to the standard model of LC8 interactions, the dimeric interface of LC8 presents two interaction sites for partners which also form dimers, implying a 1:1 stoichiometry. Partners with two adjacent binding motifs, like ANA2, follow a 1:2 stoichiometry by binding two LC8[18]. Intriguingly, we observed a 2:1 LCA5:LC8 stoichiometry for the ΔCQS and the ΔVQT mutants, which means that one LC8 dimer binds four LCA5 chains (Supplementary Table S1). A reasonable interpretation is that the native LCA5 is dimeric and thus a pair of LCA5 dimers bind to one dimeric LC8. In such a situation, one i ... || page 10: Composition of complexes Number of LC8 Number of Ratio of LCA5 LC8 binding monomeric binding monomeric LC8 in monomers to LC8 Gene name sites partners in complex complex monomers SWA (6) 1 2 2 1:1 DYNC1I1 (7) 1 2 2 1:1 WDR34-WDR60 3 1+1 6 1:3 (8) ANA2 (9) 2 2 4 1:2 ASCIZ (10) 11 2 22 1:11 sLCA5-WT 2 4 4 1:1 sLCA5-single 1 4 2 2:1 mutants Supplementary Table S1. Stoichiometries of various LC8 binding partners in complex with LC8. Known LC8 binding partners according to literature data always form dimers upon LC8 binding. The stoichiometry is basically 1:1 in case of one LC8 binding sit ...

T1 sequence (Q96FJ2 whole entry): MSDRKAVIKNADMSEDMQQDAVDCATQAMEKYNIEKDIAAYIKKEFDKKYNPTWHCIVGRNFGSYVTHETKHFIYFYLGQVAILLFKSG

| Molecule | Number of monomeric LC8 in complex | Number of monomeric binding partners in complex | LC8 binding sites |
| --- | --- | --- | --- |
| SWA: known LC8 binding partner, literature (protein, UniProt P40688 1-548, looked up) Protein swallow: MSLQDESFPTDELFDQLNNLSSSGARNTWFAEHHKPAVFERDTAPFLEICYADPDFDADGDVANKSAKTCVSDPVGRDQEDEDDYDEDVDGDDHKLGCEKAPLGSGRSSKAVSYQDIHSAYTKRRFQHVTSKVGQYIAEIQAQDQKRRNVKFAGFQRVNSMPESLTPTLQQVYVHDGDFKVDKNCQTHSNSDSNYNSNSNNSSSSFDRLLAENESLQQKINSLRVEAKRLQGFNEYVQERLDRKTDDFVKMKCNFETLRTELSECQQKLRRQQDNSQHHFMYHIRSATSAKATQTDFLVDTIPASGNVLVTPHPLGDLTYNSSKGSIELALLSVAPSARVAQNPVQVQRAIHPQSLDFSSVSTEADGSGSGEHRVETSSRALVRRTPAPNNSETSQPSSNDSAIEVEAHEEERPSSRRQWEQQGELISPRQWGQHEGMYYFDKRNNRVIEVMGFNISQGRNQSHDTIHNQSINDSQTRLLVHSMSMSHLEAHDHFRSKRTTLGSRMLRFLGPCVRCRNGDPLNRSNVTYKDGLPAMPEEEFVDQRNQR | 2 | 2 | 1 |
| ASCIZ: known LC8 binding partner, literature (protein, UniProt O43313 1-823, looked up) ATM interactor: MAASEAAAAAGSAALAAGARAVPAATTGAAAAASGPWVPPGPRLRGSRPRPAGATQQPAVPAPPAGELIQPSVSELSRAVRTNILCTVRGCGKILPNSPALNMHLVKSHRLQDGIVNPTIRKDLKTGPKFYCCPIEGCPRGPERPFSQFSLVKQHFMKMHAEKKHKCSKCSNSYGTEWDLKRHAEDCGKTFRCTCGCPYASRTALQSHIYRTGHEIPAEHRDPPSKKRKMENCAQNQKLSNKTIESLNNQPIPRPDTQELEASEIKLEPSFEDSCGSNTDKQTLTTPPRYPQKLLLPKPKVALVKLPVMQFSVMPVFVPTADSSAQPVVLGVDQGSATGAVHLMPLSVGTLILGLDSEACSLKESLPLFKIANPIAGEPISTGVQVNFGKSPSNPLQELGNTCQKNSISSINVQTDLSYASQNFIPSAQWATADSSVSSCSQTDLSFDSQVSLPISVHTQTFLPSSKVTSSIAAQTDAFMDTCFQSGGVSRETQTSGIESPTDDHVQMDQAGMCGDIFESVHSSYNVATGNIISNSLVAETVTHSLLPQNEPKTLNQDIEKSAPIINFSAQNSMLPSQNMTDNQTQTIDLLSDLENILSSNLPAQTLDHRSLLSDTNPGPDTQLPSGPAQNPGIDFDIEEFFSASNIQTQTEESELSTMTTEPVLESLDIETQTDFLLADTSAQSYGCRGNSNFLGLEMFDTQTQTDLNFFLDSSPHLPLGSILKHSSFSVSTDSSDTETQTEGVSTAKNIPALESKVQLNSTETQTMSSGFETLGSLFFTSNETQTAMDDFLLADLAWNTMESQFSSVETQTSAEPHTVSNF | 22 | 2 | 11 |
| DYNC1I1: known LC8 binding partner, literature (protein, UniProt O14576 2-645, looked up) Cytoplasmic dynein 1 …: SDKSDLKAELERKKQRLAQIREEKKRKEEERKKKEADMQQKKEPVQDDSDLDRKRRETEALLQSIGISPEPPLVQPLHFLTWDTCYFHYLVPTPMSPSSKSVSTPSEAGSQDSGDLGPLTRTLQWDTDPSVLQLQSDSELGRRLHKLGVSKVTQVDFLPREVVSYSKETQTPLATHQSEEDEEDEEMVESKVGQDSELENQDKKQEVKEAPPRELTEEEKQQILHSEEFLIFFDRTIRVIERALAEDSDIFFDYSGRELEEKDGDVQAGANLSFNRQFYDEHWSKHRVVTCMDWSLQYPELMVASYNNNEDAPHEPDGVALVWNMKFKKTTPEYVFHCQSSVMSVCFARFHPNLVVGGTYSGQIVLWDNRSHRRTPVQRTPLSAAAHTHPVYCVNVVGTQNAHNLITVSTDGKMCSWSLDMLSTPQESMELVYNKSKPVAVTGMAFPTGDVNNFVVGSEEGTVYTACRHGSKAGIGEVFEGHQGPVTGINCHMAVGPIDFSHLFVTSSFDWTVKLWTTKHNKPLYSFEDNADYVYDVMWSPVHPALFACVDGMGRLDLWNLNNDTEVPTASVAIEGASALNRVRWAQAGKEVAVGDSEGRIWVYDVGELAVPHNDEWTRFARTLVEIRANRADSEEEGTVELSA | 2 | 2 | 1 |
